Data as given in paper PMC4834876.

Molecular target: F-actin (filamentous actin) from rabbit muscle (rabbit), P68135
Assay: co-sedimentation
Conditions: remark: other sources report otherwise

B1: EB1 full-length (end-binding protein 1), wild type, Q15691 1-268 (natural protein)
chain: MAVNVYSTSVTSDNLSRHDMLAWINESLQLNLTKIEQLCSGAAYCQFMDMLFPGSIALKKVKFQAKLEHEYIQNFKILQAGFKRMGVDKIIPVDKLVKGKFQDNFEFVQWFKKFFDANYDGKDYDPVAARQGQETAVAPSLVAPALNKPKKPLTSSSAAPQRPISTQRTAAAPKAGPGVVRKNPGVGNGDDEAAELMQQVNVLKLTVEDLEKERDFYFGKLRNIELICQENEGENDPVLQRIVDILYATDEGFVIPDEGGPQEEQEEY
Which percent co-pelleted (with APC-C1 added) does the source give for B1 here?
The percent co-pelleted (with APC-C1 added) was 50%.
